From PMC6497670
One block for each substance: values may come before it.

Tests used:
Test in all cases: PELDOR/DEER EPR; MTSSL-labelled protein reconstituted in soybean phosphatidylcholine liposomes (1:20 protein/lipid), 50 mM KPi pH 8.0, spin concentration 80-130 µM, 20% deuterated glycerol, Q-band, 50 K; monomer to dimer
[1] = molecular target: SLC26Dg K353R1 (single-cysteine mutant K353C labelled with MTSSL) (Deinococcus geothermalis)
[2] = molecular target: SLC26Dg L385R1 (single-cysteine mutant L385C labelled with MTSSL) (Deinococcus geothermalis)
[3] = molecular target: SLC26Dg V367R1 (single-cysteine mutant V367C labelled with MTSSL) (Deinococcus geothermalis)

- stoichiometry N [1]: 2
Substance: SLC26Dg K353R1 (single-cysteine mutant K353C labelled with MTSSL) (natural protein)

- stoichiometry N [2]: 2
Substance: SLC26Dg L385R1 (single-cysteine mutant L385C labelled with MTSSL) (natural protein)

- stoichiometry N [3]: 2
Substance: SLC26Dg V367R1 (single-cysteine mutant V367C labelled with MTSSL) (natural protein)
